Experimental data published in the supplement of paper PMC11908140.

B1: library; numbered along this chain (parent)
chain: MRKPRAAVGSGHRKQAASQEGRQKHAKNNSQAKPSACDGLARQPEEVVLQASVSSYHLFRDVAEVTAFRGSLLSWYDQEKRDLPWRRRAEDEMDLDRRAYAVWVSEVMLQQTQVATVINYYTGWMQKWPTLQDLASASLEEVNQLWAGLGYYSRGRRLQEGARKVVEELGGHMPRTAETLQQLLPGVGRYTAGAIASIAFGQATGVVDGNVARVLCRVRAIGADPSSTLVSQQLWGLAQQLVDPARPGDFNQAAMELGATVCTPQRPLCSQCPVESLCRARQRVEQEQLLASGSLSGSPDVEECAPNTGQCHLCLPPSEPWDQTLGVVNFPRKASRKPPREESSATCVLEQPGALGAQILLVQRPNSGLLAGLWEFPSVTWEPSEQLQRKALLQELQRWAGPLPATHLRHLGEVVHTFSHIKLTYQVYGLALEGQTPVTTVPPGARWLTQEEFHTAAVSTAMKKVFRVYQGQQPGTCMGSKRSQVSSPCSRKKPRMGQQVLDNFFRSHISTDAHSLNSAAQ

Variants of: B1
Test: 8OG:A repair function score (normalized; synonymous = 0, nonsense = -1) (normalized log-likelihood score); higher = more repair activity (WT-like)
Details: with 8OG:A DNA repair reporter (GFP) in HEK-293 MUTYH KO cells
Protocol: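 Saturation mutagenesis (NNN codon scan) of the MUTYH cDNA (521-aa nuclear isoform NM_001048174.1 / NP_001041639), stably expressed under doxycycline induction in HEK-293 MUTYH knockout cells. Cells were co-transfected with an 8OG:A-bearing GFP repair reporter plus mCherry and sorted 72 h later into GFP+ and GFP− bins, three replicates per tile. The Rosace log2 enrichment (GFP+ vs GFP−) was converted per tile to a normalized function score with synonymous variants centered at 0 and nonsense variants (codons 1-471) at -1; low-abundance variants were removed.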

8OG:A repair function score of substitutions, site by site:
A162: M -0.887; P -1.19; F -1.26; D -1.2; K -1.03; T -0.155; L -1; Q -0.953; H -1.08; V -0.278; E -1.14; G -0.456; R -1.02; Y -1.22; W -0.917; N -0.917; S -0.159; C -0.175; I -0.523
Q159: G -0.279; T -0.0681; N -0.144; M 0.0724; H 0.0232; W 0.287; Y 0.116; A -0.0252; I 0.0245; E -0.416; R 0.162; F 0.0628; D -0.824; C 0.0194; L 0.127; V 0.0456; K 0.0628; P -0.377; S -0.121
E168: K -0.00268; T -0.0102; Y -0.173; I -0.134; L -0.0373; M -0.0593; S -0.0595; Q 0.0147; W -0.201; P -0.661; V -0.0341; F -0.102; G -0.24; H -0.103; R -0.0574; A -0.135; N 0.0349; C 0.0112; D -0.0557
G170: L -0.232; Q 0.0993; D 0.0788; H 0.094; P -0.872; K -0.0295; W -0.239; S 0.00875; F -0.166; N 0.0595; M -0.0605; E -0.0272; T -0.248; R -0.0153; Y -0.062; I -0.395; C -0.00944; V -0.31
V165: H -1.11; Y -1.15; M -0.283; Q -0.882; L -0.0671; E -1.11; W -0.957; S -0.732; G -0.877; I -0.0615; F -0.802; N -1.08; C -0.0561; K -1.13; T -0.312; A -0.341; D -0.91; R -1.07; P -1.08
R163: A -0.182; Y -0.137; H -0.238; V -0.0917; P -0.887; T -0.128; F -0.174; S -0.122; Q -0.143; D -0.387; M -0.0916; N -0.164; I -0.115; W -0.296; E -0.375; K -0.132; G -0.378; L -0.128; C -0.00395
R157: Q -0.117; C -0.297; H -0.0973; E -0.665; S -0.182; G -0.381; Y -0.068; V -0.362; L -0.141; K -0.0295; P -1.11; D -0.365; I -0.517; N 0.023; M -0.0764; T -0.216; F -0.0928; A -0.14; W -0.0111
L158: G -1.15; E -1.05; H -0.935; K -1.19; D -1.18; F -0.384; I -0.11; M -0.194; S -1.05; Q -1.31; W -0.991; V -0.372; A -0.675; R -1.09; C -0.573; T -0.756; N -1.2; Y -1.09; P -0.951
G171: N -0.204; F -0.571; I -0.703; E -0.526; P -1.16; Q -0.338; R -0.577; S -0.267; A -0.18; L -0.605; C -0.239; M -0.536; K -0.84; H -0.42; D -0.296
L169: F -0.0235
